Assays:
[1] = molecular target: T1, human BCMA on Flp-inCHO-human BCMA cells (human, UniProt Q02223 1-184); test: FACS, Flp-inCHO-human BCMA cells
T1 construct: whole, on cells
T1 sequence (looked up): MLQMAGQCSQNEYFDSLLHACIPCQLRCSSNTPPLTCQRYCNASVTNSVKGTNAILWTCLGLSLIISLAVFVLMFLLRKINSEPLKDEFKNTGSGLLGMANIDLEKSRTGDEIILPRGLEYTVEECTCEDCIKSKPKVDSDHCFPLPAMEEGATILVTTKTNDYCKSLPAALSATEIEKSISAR

[2] = molecular target: T2, monkey CD3 on activated monkey PBMC (monkey); test: FACS, activated monkey PBMC
T2 construct: whole, on cells

[3] = molecular target: T3, human GPRC5D on CHOK1-human GPRC5D cells (human, UniProt Q9NZD1 1-345); test: FACS, CHOK1-human GPRC5D cells
T3 construct: whole, on cells
T3 sequence (Q9NZD1 whole entry): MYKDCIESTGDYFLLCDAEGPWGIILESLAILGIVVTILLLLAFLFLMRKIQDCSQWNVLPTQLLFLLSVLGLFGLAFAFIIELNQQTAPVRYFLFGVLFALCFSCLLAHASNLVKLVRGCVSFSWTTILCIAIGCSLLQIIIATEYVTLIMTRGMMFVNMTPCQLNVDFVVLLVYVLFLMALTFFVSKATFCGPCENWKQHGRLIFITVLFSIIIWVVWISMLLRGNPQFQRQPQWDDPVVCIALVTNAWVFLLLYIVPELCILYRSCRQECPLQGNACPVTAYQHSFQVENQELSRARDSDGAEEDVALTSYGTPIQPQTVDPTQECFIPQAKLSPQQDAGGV

T2 sequence (Q95LI5 22-198): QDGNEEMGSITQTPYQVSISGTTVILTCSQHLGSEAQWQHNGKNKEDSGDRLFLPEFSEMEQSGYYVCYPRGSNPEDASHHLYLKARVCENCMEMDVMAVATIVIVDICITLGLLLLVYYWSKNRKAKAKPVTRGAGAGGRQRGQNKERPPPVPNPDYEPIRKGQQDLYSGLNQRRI

B1: Tri-17 (trispecific antibody, V domains shown)
VHH: EVQLVESGGGLVQPGGSLRLSCSASGFTLDYYMIGWFRQAPGKEREGLSSISPADGSTYYADSVKGRFTISRDSSKNTVYLQMNSLRAEDTAVYYCAAGNEATISWGFGPWEYDYWGQGTMVTVSS
VH 1: EVQLVQSGAEVKKPGSSVKVSCKASGYTFTSYGISWVRQAPGQGLEWMGEIYPRSGNTYYNEKFKGRVTLTADKSTSTAYMELSSLRSEDTAVYYCARGRAYGRNYPMDYWGQGTTVTVSS
VL 1: EIVLTQSPATLSLSPGERATLSCRASQSIGTSIHWYQQKPGQSPRLLIKYASESISGIPARFSGSGSGTDFTLTISSLEPEDFAVYYCQQSNSWPYTFGGGTKVEIK
VH 2: EVQLVESGGGVVQPGRSLRLSCAASGFTFTDYYMSWVRQAPGKGLEWVAMSRNKAKGHTIEYSSSVKGRFTISRDNSKNTLYLQMNSLRAEDTAVYYCARDTYESYDGYFDVWGQGTTVTVSS
VL 2: DIVMTQSPDSLAVSLGERATINCKSSQSLFNSRSRKNYLAWYQQKPGQTPKLLIYWASIRESGVPDRFSGSGSGTDFTLTISSLQAEDVAVYYCKQSYYLYTFGQGTKLEIK
[1]
  EC50: 2.97 nM
[2]
  Maximum mean fluorescence intensity: 3280
[3]
  EC50: 0.69 nM

B2: Tri-63 (trispecific antibody, V domains shown)
VHH: EVQLVESGGGLVQPGGSLRLSCAASESISSIHIMAWYRQAPGKQRELVAGIRNDGSTVYVDSVKGRFTISRDNAKNSLYLQMNSLRAEDTAVYYCNADQGFGSYSEWERRSRWGQGTTVTVSS
VH 1: EVQLVQSGAEVKKPGSSVKVSCKASGYTFTSYGISWVRQAPGQGLEWMGEIYPRSGNTYYNEKFKGRVTLTADKSTSTAYMELSSLRSEDTAVYYCARGRAYGRNYPMDYWGQGTTVTVSS
VL 1: EIVLTQSPATLSLSPGERATLSCRASQSIGTSIHWYQQKPGQSPRLLIKYASESISGIPARFSGSGSGTDFTLTISSLEPEDFAVYYCQQSNSWPYTFGGGTKVEIK
VH 2: EVQLVESGGGVVQPGRSLRLSCAASGFTFTDYYMSWVRQAPGKGLEWVAMSRNKAKGHTIEYSSSVKGRFTISRDNSKNTLYLQMNSLRAEDTAVYYCARDTYESYDGYFDVWGQGTTVTVSS
VL 2: DIVMTQSPDSLAVSLGERATINCKSSQSLFNSRSRKNYLAWYQQKPGQTPKLLIYWASIRESGVPDRFSGSGSGTDFTLTISSLQAEDVAVYYCKQSYYLYTFGQGTKLEIK
[1]
  EC50: 2.1 nM
[2]
  Maximum mean fluorescence intensity: 434
[3]
  EC50: 3.8 nM

B3: Tri-56 (trispecific antibody, V domains shown)
VHH: EVQLVESGGGLVQPGGSLRLSCAASESISSIHIMAWYRQAPGKQRELVAGIRNDGSTVYVDSVKGRFTISRDNAKNSLYLQMNSLRAEDTAVYYCNADQGFGSYSEWERRSRWGQGTTVTVSS
VH 1: EVQLVQSGAEVKKPGSSVKVSCKASGYTFTSYGISWVRQAPGQGLEWMGEIYPRSGNTYYNEKFKGRVTLTADKSTSTAYMELSSLRSEDTAVYYCARGRAYGRNYPMDYWGQGTTVTVSS
VL 1: EIVLTQSPATLSLSPGERATLSCRASQSIGTSIHWYQQKPGQSPRLLIKYASESISGIPARFSGSGSGTDFTLTISSLEPEDFAVYYCQQSNSWPYTFGGGTKVEIK
VH 2: EVQLVESGGGVVQPGRSLRLSCAASGFTFTDYYMSWVRQAPGKGLEWVAMSRNKAKGHTIEYSSSVKGRFTISRDNSKNTLYLQMNSLRAEDTAVYYCARDTYESYDGYFDVWGQGTTVTVSS
VL 2: DIVMTQSPDSLAVSLGERATINCKSSQSLFNSRSRKNYLAWYQQKPGQTPKLLIYWASIRESGVPDRFSGSGSGTDFTLTISSLQAEDVAVYYCKQSYYLYTFGQGTKLEIK
[1]
  EC50: 1.3 nM
[2]
  Maximum mean fluorescence intensity: 575
[3]
  EC50: 0.38 nM
